Target: flag-tagged wild-type E2F1 (residues 1–437) (UniProt Q01094 1-437)
Assay: cell-based or functional assay

Chain of flag-tagged wild-type E2F1 (residues 1–437) (Q01094 whole entry, the tested form may be a part): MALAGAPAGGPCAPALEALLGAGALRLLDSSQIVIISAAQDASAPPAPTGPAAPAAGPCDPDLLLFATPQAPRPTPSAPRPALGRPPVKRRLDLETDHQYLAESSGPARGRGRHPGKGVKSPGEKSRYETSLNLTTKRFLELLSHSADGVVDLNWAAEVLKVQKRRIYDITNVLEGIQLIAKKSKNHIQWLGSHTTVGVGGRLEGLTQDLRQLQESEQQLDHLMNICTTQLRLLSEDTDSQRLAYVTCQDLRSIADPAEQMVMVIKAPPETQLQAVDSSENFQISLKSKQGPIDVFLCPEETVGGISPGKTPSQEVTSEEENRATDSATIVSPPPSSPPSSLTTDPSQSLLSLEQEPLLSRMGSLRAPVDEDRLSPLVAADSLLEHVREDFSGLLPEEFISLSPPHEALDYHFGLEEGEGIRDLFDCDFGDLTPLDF

B1: myc-tagged EBNA3C (residues 1–992) (natural protein)
chain: MESFEGQGDSRQSPDNERGDNVQTTGEHDQDPGPGPPSSGASERLVPEESYSRDQQPWGQSRGDENRGWMQRIRRRRRRRAALSGHLLDTEDNVPPWLPPHDITPYTARNIRDAACRAVKQSHLQALSNLILDSGLDTQHILCFVMAARQRLQDIRRGPLVAEGGVGWRHWLLTSPSQSWPMGYRTATLRTLTPVPNRVGADSIMLTATFGCQNAARTLNTFSATVWTPPHAGPREQERYAREAEVRFLRGKWQRRYRRIYDLIELCGSLHHIWQNLLQTEENLLDFVRFMGVMSSCNNPAVNYWFHKTIGNFKPYYPWNAPPNENPYHARRGIKEHVIQNAFRKAQIQGLSMLATGGEPRGDATSETSSDEDTGRQGSDVELESSDDELPYIDPNMEPVQQRPVMFVSRVPAKKPRKLPWPTPKTHPVKRTNVKTSDRSDKAEAQSTPERPGPSEQSSVTVEPAHPTPVEMPMVILHQPPPVPKPVPVKPTPPPSRRRRGACVVYDDDVIEVIDVETTEDSSSVSQPNKPHRKHQDGFQRSGRRQKRAAPPTVSPSDTGPPAVGPPAAGPPAAGPPAAGPPAAGPPAAGPPAAGPRILAPLSAGPPAAGPHIVTPPSARPRIMAPPVVRMFMRERQLPQSTGRKPQCFWEMRAGREITQMQQEPSSHLQSATQPTTPRPSWAPSVCALSVMDAGKAQPIESSHLSSMSPTQPISHEEQPRYEDPDAPLDLSLHPDVAAQPAPQAPYQGYQEPPAPQAPYQGYQEPPPPQAPYQGYQEPPAHGLQSSSYPGYAGPWTPRSQHPCYRHPWAPWSQDPVHGHTQGPWDPRAPHLPPQWDGSAGHGQDQVSQFPHLQSETGPPRLQLSLVPLVSSSAPSWSSPQPRAPIRPIPTRFPPPPMPLQDSMAVGCDSSGTACPSMPFASDYSQGAFTPLDINATTPKRPRVEESSHGPARCSQATAEAQEILSDNSEISVFPKDAKQTDYDASTESELD
- proliferation of G418-selected Saos-2 cells after serum starvation and 5 µM etoposide, counted for 6 days: E2F1 plus EBNA3C against E2F1 alone or E2F1 plus EBNA3C residues 366-620: ~4 fold
